Laboratory results published in the RNAGym collection of RNA variant scans (doi:10.7554/elife.80360).

B1: HDV Ribozyme (parent)
chain: GGCCGGCAUGGUCCCAGCCUCCUCGCUGGCGCCGGCUGGGCAACAUUCCGAGGGGACCGUCCCCUCGGUAAUGGCGAAUGGGACCCA

Variants of: B1
Assay: self-cleavage, relative activity (ratio to wild type); higher = more cleavage; co-transcriptional
G29A C49G gave a self-cleavage of 0.225. For G29U C61A, the self-cleavage was 0.089. For G28C A71U, the self-cleavage was 0.0426. C30U G31A gave a self-cleavage of 0.168. With G28U A51G the self-cleavage was 0.117. Work on G28U A51C yielded a self-cleavage of 0.222. C30U A70U showed a self-cleavage of 0.782. With G28U U65A the self-cleavage was 0.0339. Variant C30A U79A has a self-cleavage of 0.386. With C30A U79G the self-cleavage was 0.256. Work on C30G U60G yielded a self-cleavage of 0.0386. Work on G29U G81U yielded a self-cleavage of 0.0554. For C30A A43U, the self-cleavage was 0.0692. For G28U C49U, the self-cleavage was 0.0639. Variant G28U C49A has a self-cleavage of 0.0297. G28U C33G showed a self-cleavage of 0.212. With G31A A87U the self-cleavage was 0.442. In the case of G28U U72G, the self-cleavage is reported as 0.0554. Variant G28U U72C has a self-cleavage of 0.0898. G28U A71C showed a self-cleavage of 0. Work on C30A U72G yielded a self-cleavage of 0.185. In the case of C30U C75U, the self-cleavage is reported as 0.157. G28U G67U gave a self-cleavage of 0.137. In the case of C30A A56U, the self-cleavage is reported as 0.727. G29U G52A gave a self-cleavage of 0.168. In the case of C30G C86A, the self-cleavage is reported as 0.241. In the case of C30U G40U, the self-cleavage is reported as 0.114. Work on C30U G40C yielded a self-cleavage of 0.0256. In the case of G29U U37G, the self-cleavage is reported as 0.0723. Variant C30U A42G has a self-cleavage of 0.156. Variant C30U A42C has a self-cleavage of 0.0282. For C30A U69C, the self-cleavage was 0.623. Variant G28C A51G has a self-cleavage of 0.0723. G28C G29A gave a self-cleavage of 0.0692. Work on C30U A56C yielded a self-cleavage of 0.772. C30A G38A showed a self-cleavage of 0.219. G28U C32A gave a self-cleavage of 0.0496. C30G G73A gave a self-cleavage of 0.0455. Variant C30G G73C has a self-cleavage of 0.0489. In the case of G28C G80C, the self-cleavage is reported as 0.166. Work on G28C G80U yielded a self-cleavage of 0.123. With G29U C32G the self-cleavage was 0.0455. For G28C G31U, the self-cleavage was 0.244. In the case of C30U G74U, the self-cleavage is reported as 0.131. In the case of C30G C66U, the self-cleavage is reported as 0.185. For G29A A56U, the self-cleavage was 0.111. In the case of G29C C49U, the self-cleavage is reported as 0.128. With G29C C49A the self-cleavage was 0.222. Variant G28C G81U has a self-cleavage of 0.0639. Work on G29A G59A yielded a self-cleavage of 0.179. In the case of G29A G59C, the self-cleavage is reported as 0.123. C30A G50A showed a self-cleavage of 0.641. G29C U46A showed a self-cleavage of 0.178. G29U A43U showed a self-cleavage of 0.095. Work on G29U A43C yielded a self-cleavage of 0.136. With C30U C62U the self-cleavage was 0.562. In the case of G29C C61A, the self-cleavage is reported as 0.0791. G29A U69A gave a self-cleavage of 0.172. Variant G29A U69G has a self-cleavage of 0.0475. For G29A C66G, the self-cleavage was 0.204. C30U U69G gave a self-cleavage of 0.554. Variant C30A C48G has a self-cleavage of 0.467. C30G A51C gave a self-cleavage of 0.142. Work on G29C A78G yielded a self-cleavage of 0. With C30A U65C the self-cleavage was 0.644. With C30A U65A the self-cleavage was 0.341. With C30A U65G the self-cleavage was 0.441. With G29U C30U the self-cleavage was 0.0779. For G29A U72C, the self-cleavage was 0.0852. G29A U72G showed a self-cleavage of 0.0923. G29U G59A gave a self-cleavage of 0.102. G31A A43U gave a self-cleavage of 0.128. With C30U G55C the self-cleavage was 0.523. With G28C G59C the self-cleavage was 0.212. For C30U U46A, the self-cleavage was 0.369. Variant C30U U46C has a self-cleavage of 0.0723. G28C C58U showed a self-cleavage of 0.0369. G29A G35A gave a self-cleavage of 0.0923. C30A G31A showed a self-cleavage of 0.0733. C30A G55A gave a self-cleavage of 0.472. C30U G39A gave a self-cleavage of 0.273. Work on C30G G54A yielded a self-cleavage of 0.0811. C30U C33G showed a self-cleavage of 0.266. C30A G81C gave a self-cleavage of 0.201. For C30G C85U, the self-cleavage was 0.0302. For C30G C85G, the self-cleavage was 0.0405. With C30A A83U the self-cleavage was 0.0923. Variant G28U A77U has a self-cleavage of 0.0707. In the case of G29A G55C, the self-cleavage is reported as 0.0563. Work on C30U G35C yielded a self-cleavage of 0.185. For G29U G38C, the self-cleavage was 0.0386. Variant G29U G38A has a self-cleavage of 0.0656. G28C U60G showed a self-cleavage of 0. In the case of G28C U60A, the self-cleavage is reported as 0.104. In the case of C30G C44A, the self-cleavage is reported as 0.0875. For G29U C85A, the self-cleavage was 0.0941. Work on G29A C84G yielded a self-cleavage of 0.102. C30G G67A showed a self-cleavage of 0.0287. C30G G67U showed a self-cleavage of 0.112. Variant G29A G73A has a self-cleavage of 0.143. With G29A G73C the self-cleavage was 0.0639. Work on G29A C32G yielded a self-cleavage of 0.0219. Work on G29A A43C yielded a self-cleavage of 0.0978. C30G G68C gave a self-cleavage of 0.0906. Variant C30A G74C has a self-cleavage of 0.158. For C30U A45G, the self-cleavage was 0.796. Variant G29C C30A has a self-cleavage of 0.156. C30U G59A showed a self-cleavage of 0.878. With G29A U47C the self-cleavage was 0.16. Work on G28C G39U yielded a self-cleavage of 0.125. Work on G29U C58A yielded a self-cleavage of 0.204. Work on G28C C57U yielded a self-cleavage of 0.0277. Variant C30A C32U has a self-cleavage of 0.171. Work on G29C C32G yielded a self-cleavage of 0.0639. With G29C G76U the self-cleavage was 0.119. Variant G29C G76C has a self-cleavage of 0.0386. Work on G29C A51U yielded a self-cleavage of 0.0308. Variant C30G A45G has a self-cleavage of 0.0563. C30G A45C gave a self-cleavage of 0.0997. Work on G29C G68A yielded a self-cleavage of 0.163. C30A A45C gave a self-cleavage of 0.0678. G31A A78G gave a self-cleavage of 0.0978. For G28U G80U, the self-cleavage was 0.1. With G29U U47C the self-cleavage was 0.19. C30U C63U showed a self-cleavage of 0.581. In the case of C30U C63A, the self-cleavage is reported as 0.466. For G28U C85A, the self-cleavage was 0.203. C30U U47C gave a self-cleavage of 0.401. Variant G29U A56U has a self-cleavage of 0.109. G29A G74A showed a self-cleavage of 0.0773. In the case of G29A C75A, the self-cleavage is reported as 0.0852. Work on G29A C62G yielded a self-cleavage of 0.169. Variant C30U G67A has a self-cleavage of 0.578. With G31A A56U the self-cleavage was 0.482. In the case of G29A G31U, the self-cleavage is reported as 0.0272. For G29A G31C, the self-cleavage was 0.154. G29A G31A showed a self-cleavage of 0.0723. G29A U79A gave a self-cleavage of 0.166. For G29A U79C, the self-cleavage was 0.113. For G29U G53A, the self-cleavage was 0.0432. Variant C30A C41G has a self-cleavage of 0.0875. Work on G28U C61U yielded a self-cleavage of 0.193. For G29C C48G, the self-cleavage was 0.095. G29C G35U showed a self-cleavage of 0.0554. G29C G74A gave a self-cleavage of 0.0733. G29C G74U showed a self-cleavage of 0. C30U G76A showed a self-cleavage of 0.862. With G28C U65C the self-cleavage was 0.101. C30G U72A showed a self-cleavage of 0.0536. With C30G U72C the self-cleavage was 0.0594. G29U C48U gave a self-cleavage of 0.0959. G29U G35U showed a self-cleavage of 0.058. With G29U G35A the self-cleavage was 0.0744. With G28C U79G the self-cleavage was 0.246. G28U G34A gave a self-cleavage of 0.0496. Variant G28U A83C has a self-cleavage of 0.0811. In the case of C30A A70U, the self-cleavage is reported as 0.62. C30A C64A gave a self-cleavage of 0.536. Work on C30A C64U yielded a self-cleavage of 0.554. G29A C86A gave a self-cleavage of 0.155. C30G C36G showed a self-cleavage of 0.0594. Variant C30G C36A has a self-cleavage of 0.0554. Variant C30G C36U has a self-cleavage of 0.0443. G29A C36U showed a self-cleavage of 0.0264. Variant C30G C48G has a self-cleavage of 0.119. Variant C30A A78C has a self-cleavage of 0.117. C30A A78U gave a self-cleavage of 0.237.
